# In the nanobody polyreactivity screen of Harvey et al. (2022):
# Assay: yeast display, Sf9 membrane polyspecificity reagent, FACS + sequencing; frameworks hold sequencing errors
# How it was run: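 Synthetic nanobody libraries on Saccharomyces cerevisiae BJ5465 were galactose-induced for 36–48 hours, stained 1 hour at 4 °C with 10% biotinylated, detergent-solubilized Sf9 membrane reagent and enriched on streptavidin microbeads. FACS then separated cells into low and high (top ~1%) gates by anti-HA (expression) and streptavidin (reagent binding) fluorescence. Genes were colony-PCR amplified, MiSeq 2 × 250 sequenced and CDR-length filtered. A clone's polyreactivity label is that of its gate of origin.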
row,Sequence,polyreactivity (PSR sort gate)
1,QVQLVESGGGLVQAGGSIRLSCAASGFNFRWYAMGWYRQAPGKERELVAAIRSGGSTNYADSVKGRFTIARDNAKNTVSLQMNSLKPEDRAVYYCAAERTSYYYSNDYWGQGTQVTVSS,high polyreactivity
2,QVQLVESAGGLVQAGGSLSLSCAASGITFYRYVMGWYRQAPGKERELVAAISVSGGRTYYADSVKGRFTISRDNAKNTVYLQMNSLKPEDTAVYYCAARWAGSKSATVQYDYWGQGTQVTVSS,high polyreactivity
3,QVQLVESGGGLVQAGGSLRLSCAASGLTFVRYAMGWYRQAPGKERELVAVISYSGARTYYADSVKGRFTISRDNAKNTVYLQMNSLKPEDTAVYYCAATFRGTFRRIWTDTRAYDYWGQGTQVTVSS,high polyreactivity
4,QVQLVDSGGGLVQAGGSLRLSCAASGSIFSKYAMGGYRQAPGKERELVAAISGSGVSTYYADSVKGRFTISRDNAKNTVFLQMNSLKTEDTAVYYCNARGSFHQPRYGYWGQGTQVTVSS,high polyreactivity
5,QVQLVESGGGLVQAGGSLRLSCAASGGIFGINAMGWYRQAPWKERELVSAINLSGGRTYYADSVKGRFTISRDNSKNTVYLHMNSLKPEDTAVYYCAAYYGYSLYGHYEYWGQGTQVTVSS,high polyreactivity
6,QVQLVESGGGLVQAGGSLRLSCAASGSTFVRYAMGWYRQAPGKERELVAAISSNGGSTYYADSVKGRFTISRDNAKNSVYLQMNSLKPEDTAVYYCAKSRVRKYYWGQGTQVTVSS,high polyreactivity
7,QVQLVESGGGLVQAGGSLRISCAASGSNSNANAMGWYRQAPGKQREFVADISRSRGRTYYADSVKGRFTISRDNAKYTVYLQMNSLKPEVTAVYYCAAGGFGAGNNYWGQGTQVTVSS,high polyreactivity
8,QVQLVESGGGLVQAGGSLRLSCAASGSIFKQYVMGWYRQAPGKEREFVARISKSGGSTYYADSVKGRFTISRDNAKNTVYLQMNSLKPEDTAVYYCAVASKQALQPWYDYWGQGTQVTVSS,high polyreactivity
9,QVQLVESGGGLVQAGGSLRLSFAASGFTFVNYAMGWYRQAPGKDRELVAAIRRSGSRTYYADSVKGRFTISRDKAKNTVYLQKNSLKPEDTAVYYCAAVWYSLYGNWGQGNQVTVSS,low polyreactivity
10,QVQLVESGGGLVQAGGSLRLSCAASGFIFAQNAMGWYRQAPGKERELVAAISGSGGRTYYADSVKGRFTISRDNAKNTVYLQMNSLKPEDTAVYYCAAQYFSGYWGQGTQVTVSS,high polyreactivity
11,QVQLVESGGGLVQAGGSHRLSCAASGRTFRRNTMGWYRQAPGKERELVAAISSSGSSTYYADSVKGRFTISRDNAKNSVYLQMNSLKPEDTAVYYCAATGYPRFGYWGQGTQVTVSS,high polyreactivity
12,QVHLVESGGGLVQAGGSLRLSCAASGSTFLGYAMGWYRQAPGKERELVAAISWSGGTTYYADSVKGRFTISRDNAKNTVYFQMISQKPEDTAVYYCNVYTRGRYEYWGQGTQVTVSS,low polyreactivity
13,QVQLVESGGGLVQAGGSLRLSCAASGLTFTSYAMGWYRQAPGKERELVAAIDWSGGRTYYADSVKGRFTISRDNAKNTVYLQMNSLKPEDTAVYYCYKYRYQWPYRRFDYWGQGTQVTVSS,high polyreactivity
14,QVQLVESGGGLVQAGGSLRLSCGAYGSIFVSHAMAWSRQAPGKASELVAAISQSGGSTYYADSVKGRFTISRDNAKNTVFLQMSSLKPEDTAVYYCATPSRSGFRIYDYWGQGTQVTVSS,low polyreactivity
15,QVQLVESGGGLVQAGGSLRLSCAASGRIFAGYVMGWYRQAPGKERELVAAISWRGGRTYYADSVKGRFTISRDNAKNTVYLQMNSLKPEDTAVYYCNAPYAVGYPADDYWGQGTQVTVSS,high polyreactivity
16,QVQLVESGGGLVQAGGSLRLSCAASGFTFGTYAMGWYRQAPGKERELVAAITSSGTITYYADSVKGRFTISRDNAKNTVYLQMNSLKPEDTAVYYCAARRFRRLRWGQGTQVTVSS,low polyreactivity
17,QVQLVESGGGLVQAGGSLRLSCAASGSTFPPNAMGWYRQAPGKEGELVADSSDSSTYYADSVKGRFTISRDNAKNTVYLQMNSLKPEDTAVYYCAAADAGLSSKSYGQQYDYWGQGTQVTVSS,low polyreactivity
18,QVQLVESGGGLVQAGGSLRLSCDASGFTFATYAMGRYRQAPGKERELVAAISSGGYTYYADSVKGRFTISRDNAKNTVYLQMNSLKPEDTGVYYCNVSIGLFYLWYFNRYYYWGQGTQVTVSS,high polyreactivity
19,QVQLVESGGGLVQAGGSLRLSCAASGGTFFVYMGGYRQAPGNERELVADISGSGGGTYYADSVKGRFTISRDNAKNTVYLQMNSLKPEDTAVYYCATDVPTGIIRMYWGQGTQVTVSS,low polyreactivity
20,QVQLVESGGGLVQAGGSLRLSGAASGSIFSHYAMGWYRQAPGKAWELVASISTADSTNYADSVKGRFTISRDNAKNTVYFQMYSLKPEDTAVYYCAAEYQSYAQYAWGYDYCGQGTQVTVSS,low polyreactivity

row,Sequence,polyreactivity (PSR sort gate)
1,QVQLVESGGGLDQAGGSLPLTCAASGRTFWGNAMGWYRQAPGQERELVAGISKSGGTTYADSVKGRFTISRDNAKNTVYLEMNRLKPEDTAVYYCAAGGWWWTIPYEYWGQGTKVTVSS,high polyreactivity
2,QVQLVESGGCLVQAGGSLRLSCAASGSIFAEYAMGWSRQAPGKERELVASISSRGGRTFYADSVKGRFTISRDNAKNTVYLQMNSLKPEDTAVYYCNALRIYITKKTGYGYWGQGTQVTVSS,high polyreactivity
3,QVQLVESGGGLVQAGGSLRLSCAASGRTFGRYVMGWYRQAPGKERQLVARIRGSTTSTYYADSVKGRFTISRDNAKNTVYLQMNSLKPEDTAVYYCAASYSPFASSYGYDYWGQGTQVTVSS,high polyreactivity
4,QVQLVESGGGLVQAGGSLRLSCAASGRIFGANAMGWYRQAPGKERELVATITYGGTSTYYADSVKGRFTISRDNGKNTVYLQMNSLKPEDTAVSYCAADGYSVFAAILGEYFDSDYWGQGTQVTVSS,low polyreactivity
5,QVQLVESGGGLVQAGGSLRLSCAASGSIFDGSAMGWYRQAPGKERELVASISSGGSTNYADSVKGRFTISRDNAKNTVYLQMNSMKPEDTAVYYCAAEWVWYKWEFEYWGQGTQVSVSS,high polyreactivity
6,QVQLVESGGGLVQAGGSLRISCAASGFTFSAYAMGWYRQAPGKERELVAAISGSGGRTYYADSVKGRFTISRDNAKNTVYLQMNSLKPEDTAVYYCATSTAGGRETVSQYRYYWGHGTQVTVSS,high polyreactivity
7,QVQLVESGGGLVQAGGSLRLSCAASVFIFGLYVMGWYRQAPGKERELVAAITFNGGSTYADSVKGRFTISRDNAKNTVYLQMNSLKPEDTAVYYCNAGRAVYRYWYKYVYWGQGTQVTVSS,high polyreactivity
8,QVQLVESGGGLVQAGGSLRLSCAASGSIFLENTMGWYRQAPGKERELVAAITSSGDSTYADSVKGRFTISRDNAKNTVYLQMNSLKPEDTAVYYCAQYTRDIFAVTFYEGEDYWGQGTQVTVSS,low polyreactivity
9,QVQLVESGGGLVQAGGSLRLSCASYGRTFYDYAMGWYRPAPGKERELVAGIRWSGGSTYYADSVKGRFTISRDNAKNTVYLQLNRLKPEDTAVYYCAADWFAGVAADVEYDYWGQGTQVTVSS,low polyreactivity
10,QDQLVESGGGLVQTGGSLRLSWAASGSTFYNTVMGWYRQAPGKERELVAAINSGGRTYYADSVKGRFTISRDNAKNTVYLQMNSLNPEDTAVYYCAVGYGRAARMDYWGQGTQVTVSS,high polyreactivity
11,QVQLVESGGGLVQAGGSLRLSCAASGRIFNSYAMGWYIQAPGKERELVAAISSGGSTYYADSVKGRFTISRDNAKNTVYLQMNSLKPEDTAVYYCAARIWTGRGRKLGYGYDYWGQGTQVTVSS,low polyreactivity
12,QVQLVESGGGLVQAGGSLRLSCAASGSTLVDYAMGWYRQAPGKERELVAAISASGGTTYYADSVKGRFTISRDNAKNTVYLQMNSLKPEDTAVYYCAKYHYYYFPYDYWGQGTQVTVSS,low polyreactivity
13,QVQLVESGGGLVQAGGSLRLSCAASGRTFPGNAMGWYRQAPGKERELVAAITRVGSTYYADSVKGRFTISRDNAKNTVYLQMNSLKPEDTAVYYCAADRLEGYYEDDATGFDYWRQGTQVTVSS,low polyreactivity
14,QVQLVESGGGLVQAGGSLRLSCAASGSIFIVYAMGWYRQAPGKERELVAAISWSGGSTYYADSVKGRFTISRDNAKNTVYLQMNSLNPEDTAVYYCDAKYTLPFRDVKYYSWGQGTQVTVSS,high polyreactivity
15,QVQLVESGGGLVQAGGSLRLSCAASGRIFVINAMGWYRQAPGKERELVAAISSSGGSTSYADSVKGRFTISRDNAKNTVYLQMNSLKPEDTAVYYCAAKPRVRRVDGYYWGQGSQVTVSS,high polyreactivity
16,QVQLVESGGGLVQAGGSLRLSCPASGRTFYKYAMGWYRQAPGKEREFVADISSRGGSTYYADSVKGRFTISRDNAKNTVYLQMNSLKPEDTAVYYCAKRDRAAARAYYYWGQGTQVTVSS,high polyreactivity
17,QVQLVESGGGLVQAGGSLRLSCAASGRIFATNAMGWYRQAPGKERELVAGIRRSGARTYYADSVKGRFTISRDNAKNTVYLQMYSLKPEDTAVYYCNASLFIEIYSFQYDDHFAEYGYWGQGTQVTVSS,high polyreactivity
18,QVQLVESGGGLVQAGGSLRLSCAASGSIYLYAMGWYIQAPGKERELVADISFSDGSTYYADSVKGRFTISRDNAKNTVYLQMNSLKPEDTAVYYCAAGVWHHASWDFLEYYYWGQGTQVTVSS,low polyreactivity
19,QVQLVESGGGLVQAGGSLRLSCAASGYTFYINGMGWSRQAPGKERELVAVITWSSGSTYYADSVKGRFTISRDNAKNTVYLQMKSLKPEDTAVYYCAADVTYEDGAWTLQYDYWGQGTQVTVSA,high polyreactivity
20,QVQLVESGGGLVQAGGSLRLSCAASGLIFYLYAMGWYRQAPGKEREFVAAITTSGGSTHYADSVKGRFTISRDNAKNTVYLQMNSLKPEDTAVYYCAADDYFHGPGLEFDYWGQGTQVTVSS,low polyreactivity
